Reference: patent publication US6271012

Key:
[1] = target: casein (Hammerstein, Merck)
[2] = target: succinyl-L-alanyl-L-alanyl-L-prolyl-L-phenylalanyl-p-nitroanilide (not provided)
[3] = target: casein (Hammerstein, Merck); remark: listed apart in the source

## PB92 protease mutant G116V, S126Y, P127G, S128L (enzyme)
[1]
  Specific activity relative to PB92 protease (%), ADU method: 69%

## PB92 protease (serine protease of Bacillus nov. spec. PB92) (enzyme)
[2]
  kcat/Km (Km in mM and kcat in 1/s): 102000 M⁻¹ s⁻¹
[3]
  turnover number (kcat) measured on casein: 90 s⁻¹

## PB92 protease mutant M216Q (enzyme)
[1]
  Specific activity relative to PB92 protease (%), ADU method: 37%
[2]
  kcat/Km (Km in mM and kcat in 1/s): 3000 M⁻¹ s⁻¹

## PB92 protease mutant M117L, M216Q (enzyme)
[1]
  Specific activity relative to PB92 protease (%), ADU method: 27%
[2]
  kcat/Km (Km in mM and kcat in 1/s): 2000 M⁻¹ s⁻¹

## PB92 protease mutant [G116V, S126L, P127Q, S128A] (enzyme)
[1]
  Specific activity relative to PB92 protease (%), ADU method: 62%
[2]
  kcat/Km (Km in mM and kcat in 1/s): 57000 M⁻¹ s⁻¹

## PB92 protease mutant [S126M, P127A, S128G] (enzyme)
[1]
  Specific activity relative to PB92 protease (%), ADU method: 115%
[2]
  kcat/Km (Km in mM and kcat in 1/s): 180000 M⁻¹ s⁻¹

## PB92 protease M216-oxidized (enzyme)
[1]
  Specific activity relative to PB92 protease (%), ADU method: 50%
[2]
  kcat/Km (Km in mM and kcat in 1/s): 9000 M⁻¹ s⁻¹

## PB92 protease mutant [S160D, M216S] (enzyme)
[1]
  Specific activity relative to PB92 protease (%), ADU method: 17%

## PB92 protease mutant [G116V, S126V, P127M] (enzyme)
[1]
  Specific activity relative to PB92 protease (%), ADU method: 69%
[2]
  kcat/Km (Km in mM and kcat in 1/s): 98000 M⁻¹ s⁻¹

## PB92 protease mutant M169I, M216S (enzyme)
[1]
  Specific activity relative to PB92 protease (%), ADU method: 44%

## PB92 protease mutant S160K (enzyme)
[1]
  Specific activity relative to PB92 protease (%), ADU method: 47%
[2]
  kcat/Km (Km in mM and kcat in 1/s): 11000 M⁻¹ s⁻¹

## PB92 protease mutant [G116V, S126F, P127L, S128T] (enzyme)
[2]
  kcat/Km (Km in mM and kcat in 1/s): 19000 M⁻¹ s⁻¹

## PB92 protease mutant N212S (enzyme)
[1]
  Specific activity relative to PB92 protease (%), ADU method: 85%

## PB92 protease mutant [G116V, S126V, P127E, S128K] (enzyme)
[1]
  Specific activity relative to PB92 protease (%), ADU method: 43%
[2]
  kcat/Km (Km in mM and kcat in 1/s): 86000 M⁻¹ s⁻¹

## PB92 protease mutant [S160G, N212D] (enzyme)
[1]
  Specific activity relative to PB92 protease (%), ADU method: 76%
[2]
  kcat/Km (Km in mM and kcat in 1/s): 18000 M⁻¹ s⁻¹

## PB92 protease mutant [G116V, S126R, P127S, S128P] (enzyme)
[1]
  Specific activity relative to PB92 protease (%), ADU method: 81%

## PB92 protease mutant G116V, S126N, P127H, S128I (enzyme)
[1]
  Specific activity relative to PB92 protease (%), ADU method: 115%

## PB92 protease mutant M216S (enzyme)
[1]
  Specific activity relative to PB92 protease (%), ADU method: 40%
[2]
  kcat/Km (Km in mM and kcat in 1/s): 5000 M⁻¹ s⁻¹

## PB92 protease mutant [G116V, S126G, P127Q, S128I] (enzyme)
[1]
  Specific activity relative to PB92 protease (%), ADU method: 95%
[2]
  kcat/Km (Km in mM and kcat in 1/s): 13000 M⁻¹ s⁻¹

## PB92 protease mutant M117L, M216S (enzyme)
[1]
  Specific activity relative to PB92 protease (%), ADU method: 36%
[2]
  kcat/Km (Km in mM and kcat in 1/s): 8000 M⁻¹ s⁻¹

## PB92 protease mutant N212D (enzyme)
[1]
  Specific activity relative to PB92 protease (%), ADU method: 100%
[2]
  kcat/Km (Km in mM and kcat in 1/s): 86000 M⁻¹ s⁻¹

## PB92 protease mutant [G116V, S126H, P127Y] (enzyme)
[1]
  Specific activity relative to PB92 protease (%), ADU method: 73%

## PB92 protease mutant [G116V, S126L, P127N, S128V] (enzyme)
[1]
  Specific activity relative to PB92 protease (%), ADU method: 81%
[2]
  kcat/Km (Km in mM and kcat in 1/s): 65000 M⁻¹ s⁻¹

## PB92 protease mutant S160D (enzyme)
[1]
  Specific activity relative to PB92 protease (%), ADU method: 73%
[2]
  kcat/Km (Km in mM and kcat in 1/s): 12000 M⁻¹ s⁻¹

## PB92 protease mutant E134K (enzyme)
[1]
  Specific activity relative to PB92 protease (%), ADU method: 95%
[2]
  kcat/Km (Km in mM and kcat in 1/s): 49000 M⁻¹ s⁻¹

## PB92 protease mutant [A166D, M169I] (enzyme)
[1]
  Specific activity relative to PB92 protease (%), ADU method: 100%

## PB92 protease mutant [S160D, M216Q] (enzyme)
[1]
  Specific activity relative to PB92 protease (%), ADU method: 12%

## PB92 protease mutant S160C (enzyme)
[1]
  Specific activity relative to PB92 protease (%), ADU method: 48%
[2]
  kcat/Km (Km in mM and kcat in 1/s): 21000 M⁻¹ s⁻¹

## PB92 protease mutant M216C (enzyme)
[1]
  Specific activity relative to PB92 protease (%), ADU method: 36%
[2]
  kcat/Km (Km in mM and kcat in 1/s): 30000 M⁻¹ s⁻¹
